Measurements reported in publication PMC11770335, “Transcriptome-scale analysis uncovers conserved residues in the hydrophobic core of the bacterial RNA chaperone Hfq required for small regulatory RNA stability”.

Experiments:
Details in all cases: protein: recombinant; chain copies: 6; single strand
Hfq V22A [1] = biological target: T1, Hfq V22A (Escherichia coli, UniProt P0A6X3 1-102, V22A); test: X-ray crystallography; one pA4 traced at distal face (Methods says proximal); 0.2 M LiSO4, 0.05 M zinc acetate, Bis-Tris pH 7.5; ITC: 20 mM Tris-HCl pH 7.5, 100 mM NaCl, 20 mM KCl, 30°C; plus 5 mM MgCl2 for U6; Hfq hexamer 10-18 µM in cell
Hfq G34A [2] = biological target: T2, Hfq G34A (Escherichia coli, UniProt P0A6X3 1-102, G34A); test: ITC; 5 mM MgCl2; N 0.83 RNA/hexamer; second weaker event offset; ITC: 20 mM Tris-HCl pH 7.5, 100 mM NaCl, 20 mM KCl, 30°C; plus 5 mM MgCl2 for U6; Hfq hexamer 10-18 µM in cell
Hfq WT [3] = biological target: T3, Hfq WT (Escherichia coli, UniProt P0A6X3 1-102); test: ITC; 5 mM MgCl2; N 0.96 RNA/hexamer; second weaker event offset; ITC: 20 mM Tris-HCl pH 7.5, 100 mM NaCl, 20 mM KCl, 30°C; plus 5 mM MgCl2 for U6; Hfq hexamer 10-18 µM in cell
Hfq V22A [4] = biological target: T1, Hfq V22A; test: ITC; 5 mM MgCl2; N 1.02 RNA/hexamer; second weaker event offset; ITC: 20 mM Tris-HCl pH 7.5, 100 mM NaCl, 20 mM KCl, 30°C; plus 5 mM MgCl2 for U6; Hfq hexamer 10-18 µM in cell
Hfq WT [5] = biological target: T3, Hfq WT; test: ITC; no Mg2+ listed; N 1.31 RNA/hexamer; ITC: 20 mM Tris-HCl pH 7.5, 100 mM NaCl, 20 mM KCl, 30°C; plus 5 mM MgCl2 for U6; Hfq hexamer 10-18 µM in cell
Hfq G34A [6] = biological target: T2, Hfq G34A; test: ITC; no Mg2+ listed; N 0.75 RNA/hexamer; ITC: 20 mM Tris-HCl pH 7.5, 100 mM NaCl, 20 mM KCl, 30°C; plus 5 mM MgCl2 for U6; Hfq hexamer 10-18 µM in cell
Hfq V22A [7] = biological target: T1, Hfq V22A; test: ITC; no Mg2+ listed; N 1.43 RNA/hexamer; ITC: 20 mM Tris-HCl pH 7.5, 100 mM NaCl, 20 mM KCl, 30°C; plus 5 mM MgCl2 for U6; Hfq hexamer 10-18 µM in cell

B1: pA4 (ssRNA)
RNA: AAAA
Hfq V22A [1]
  binding result: binds

B2: U6 (ssRNA)
RNA: UUUUUU
Hfq G34A [2]
  Kd: 19.3 ± 8.3 nM
Hfq WT [3]
  Kd: 42.2 ± 12.8 nM
Hfq V22A [4]
  Kd: 56.6 ± 7.5 nM

B3: A17 (ssRNA)
RNA: AAAAAAAAAAAAAAAAA
Hfq WT [5]
  Kd: 51.5 ± 18 nM
Hfq G34A [6]
  Kd: 26.3 ± 13.2 nM
Hfq V22A [7]
  Kd: 10.5 ± 3.4 nM
